Patent US20110206686A1 (published 2011)
Each block holds one binder with its values, some of them ahead of it.

Legend:
[1] = target: T1, human IL-23 (human, UniProt Q9NPF7 20-189; P29460 23-328); assay: blocking ELISA, optimised protocol (Example 6): antibody pre-incubated with constant human IL-23, binding to plate-coated human IL-23R Fc chimera detected with biotinylated anti-human IL-12, OD450; purified antibody
T1 construct: Heterodimer of p19 and p40; also called hIL-23; recombinant human IL-23
T1 sequence 1: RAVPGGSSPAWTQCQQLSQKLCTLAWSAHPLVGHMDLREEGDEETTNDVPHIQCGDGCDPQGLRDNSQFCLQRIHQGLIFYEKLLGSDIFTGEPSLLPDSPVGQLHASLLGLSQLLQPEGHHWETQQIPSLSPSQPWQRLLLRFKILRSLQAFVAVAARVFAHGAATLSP
T1 sequence 2: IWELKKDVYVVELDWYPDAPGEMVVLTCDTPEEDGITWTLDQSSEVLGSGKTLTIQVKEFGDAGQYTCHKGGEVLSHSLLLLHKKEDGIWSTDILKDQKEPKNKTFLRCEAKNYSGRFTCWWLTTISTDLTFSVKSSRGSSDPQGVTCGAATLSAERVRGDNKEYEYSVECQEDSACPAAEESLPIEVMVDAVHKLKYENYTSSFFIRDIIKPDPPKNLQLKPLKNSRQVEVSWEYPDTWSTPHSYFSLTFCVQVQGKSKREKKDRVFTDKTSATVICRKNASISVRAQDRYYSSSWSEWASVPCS
Procedure: Optimised protocol: Plates were coated with human IL23R Fc chimera at […] (phosphate buffered saline). 50 μl/well of this mixture was incubated overnight at 4° C. The plates were then washed three times with Phosphate Buffered Saline with 0.05% Tween 20 (PBST). Plates were blocked with 4% skim milk powder (Fluka BioChemika #70166) PBST 100 μl/well for a minimum of 1 hour at room temperature. The plates were then washed three times with Phosphate Buffered Saline+0.05% Tween 20 (PBST). Various concentrations of antibody were incubated in a separate plate with a constant concentration of IL-23 for 1 hour at room temperature. 50 ul of each mixture were transferred to the assay plate and incubated at RT for 1 hr. They were then washed three times with Phosphate Buffered Saline+0.05% Tween 20 (PBST). Bound IL23 was detected by anti human IL12 Biotin labelled Ab (R&D systems BAF219) diluted to 100 ng/ml in 4% skim milk powder (Fluka BioChemika #70166) PBST. 50 μl/well of the biotinylated antibody was added and incubated at RT for 1 hour. The plates were then washed three times with Phosphate Buffered Saline+0.05% Tween 20 (PBST). SA HRP (GE healthcare RPN4401) was diluted 1/4000 in 4% skim milk powder (Fluka BioChemika #70166) PBS, 50 μl/well was added to the plates. […] The plate was read at OD450 nm using the SOftmaxPRO versamax plate reader.

[2] = target: T1, human IL-23; assay: blocking ELISA (Example 10): purified antibody pre-incubated with endogenous human IL-23 (5 ng/ml), binding to plate-coated recombinant human IL-23 receptor detected with biotinylated anti-human IL-12; 25% human pooled AB serum
Procedure: Recombinant human IL-23 Receptor (R&D systems 1400-IR-050) was coated onto 96 well plates at a concentration of 1 μg/ml. Endogenous human IL-23 at 5 ng/ml final, was pre incubated with a titration of purified mAbs before being added to the pre-coated plates. Detection was performed with biotinylated anti-human IL12 (R&D systems BAF-219), followed by Streptavidin-HRP (GE Healthcare RPN 4401). This neutralisation ELISA used 25% human pooled AB type serum. 8C92H₆, HC1LC1, and A3M0 retain their activity in human serum and inhibit binding of endogenous human IL-23 binding to human IL-23 receptor.

[3] = target: T1, human IL-23; assay: blocking ELISA (Example 9): purified antibody pre-incubated with endogenous human IL-23 (3.5 ng/ml, from stimulated dendritic cells), binding to plate-coated recombinant human IL-23 receptor detected with biotinylated anti-human IL-12; 1% BSA
Procedure: Recombinant human IL-23 Receptor (R&D systems 1400-IR-050) was coated onto 96 well plates at a concentration of 1 μg/ml. Endogenous human IL-23 at 3.5 ng/ml final, was pre incubated for 1 hour with a titration of purified antibody material before being added to the pre-coated plates. Detection was performed with biotinylated anti-human IL12 (R&D systems BAF-219) followed by Streptavidin-HRP (GE Healthcare RPN 4401). This neutralisation ELISA used 1% BSA.

IC50 (read off the curve) [1]: ~0.9 nM
B1: A3N2 (antibody, human IgG1, kappa, V domains shown)
VH: QVQLVQSGAEVKKPGSSVKVSCKASGYTFTSYGITWVRQAPGQGLEWMGENYPRSGNTYYNEKFKGRVTITADKSTSTAYMELSSLRSEDTAVYYCARSEFISTVVAPYYYALDYWGQGTLVTVSS
VL: DIVMTQTPLSLSVTPGQPASISCKASKKVTIFGSISALHWYLQKPGQPPQLIYNGAKLESGVSDRFSDSGSGTDFTLKISRVEAEDVGVYYCLQNKEVPYTFGGGTKVEIKR

IC50 (read off the curve) [2]: ~0.02 µg/mL
B2: A3M0 (antibody, human IgG1, kappa, V domains shown)
VH: B1 VH
VL: DIVMTQSPDSLAVSLGERATINCKASKKVTIFGSISALHWYQQKPGQPPKLIYNGAKLESGVPDRFSGSGSGTDFTLTISSLQAEDVAVYYCLQNKEVPYTFGGGTKVEIKR
notes: Humanised, human gamma1 and kappa constant regions; also called A3M0 (humanised)

IC50 (read off the curve) [3]: ~0.05 µg/mL
B3: murine mAb 8C9 2H6 (antibody, V domains shown)
VH: QVQLQQSGAELARPGTSVKLSCKASGYTFTSYGITWVKQRTGQGLEWIGENYPRSGNTYYNEKFKGKATLTADKSSSTAYMELRSLTSEDSAVYFCARCEFISTVVAPYYYALDYWGQGTSVTVSS
VL: DIVLTQSPASLAVSLGQKATISCKASKKVTIFGSISALHWYQQKPGQPPKLIYNGAKLESGVSARFSDSGSQNRSPFGNQLSFTLTIDPVEADDAATYYCLQNKEVPYTFGGGTKLEIK
notes: Murine hybridoma antibody; also called 8C92H6 (mouse parental); murine 8C92H6 mAb
